Source: the supplement of paper PMC10724198
± gives the standard deviation of the averaged measurements.

Tested on: Saccharomyces cerevisiae
Assay: protein stability index of tFT-peptide fusion (C-terminal peptide) (PSI (0-1 scale)); higher = more stable (slower turnover)
Details: genetic background: wild type; temperature: 30 C
Method: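 Multiplexed protein stability (MPS) profiling in S. cerevisiae. Random 12-aa peptides (tFT-X12 library) are fused to the C-terminus of a sfGFP-mCherry tandem fluorescent timer, after mCherry and a GGGS linker. Cells are FACS-sorted into 8 mCherry/sfGFP bins and deep-sequenced. The protein stability index (PSI) is the read-weighted bin average, scaled from 0 (unstable) to 1 (stable). Only peptides with >10 reads are reported; cells were grown at 30 °C in SC-His with glucose.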
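Further: PSI is a weighted mean of sequencing reads over stability bins, variants kept only with over 10 reads, mCherry proximal and sfGFP distal, peptide attached via GGGS linker.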

Row | Sequence | protein stability index
1 | QTYNKRKGAIRA | 0.616 ± 0.016
2 | ASPFTYPDFFFP | 0.661 ± 0.046
3 | GKLHKNTDEIET | 0.762 ± 0.062
4 | VLLSTLHLRGFG | 0.537 ± 0.04
5 | GKGTRGTRRGGK | 0.632 ± 0.024
6 | SGRPALSRARRG | 0.668 ± 0.015
7 | RAGSLRFRVILY | 0.635 ± 0.026
8 | RAKCELVHGLRT | 0.65 ± 0.026
9 | CAAYIQNLPFPF | 0.727 ± 0.019
10 | ELIDGKLLRHRQ | 0.733 ± 0.061
11 | VSSSLPVHLSLS | 0.717 ± 0.037
12 | SGVTISYQEGLR | 0.677 ± 0.0091
13 | FFRDDNRDHKRT | 0.689 ± 0.017
14 | INWNVMDRVTCN | 0.633 ± 0.12
15 | FCGACFRGDVLV | 0.67 ± 0.017
16 | LFPAGSSLCGAI | 0.753 ± 0.061
17 | PPAPPTSLPSPL | 0.726 ± 0.019
18 | ECVRWFKNTDRL | 0.721 ± 0.032
19 | RFPRFVVPTRTR | 0.852 ± 0.058
20 | KGINALICTGSI | 0.6601 ± 0.0043
21 | VCGVSWSRFPVL | 0.716 ± 0.0099
22 | VFPLSLLLTSFL | 0.591 ± 0.047
23 | LKMGAWAHTETW | 0.645 ± 0.033
24 | LPPPPPPSHPPP | 0.697 ± 0.018
25 | VNFGWWVVGSRS | 0.685 ± 0.062

Row | Sequence | protein stability index
26 | LLPPVLPPTLPP | 0.633 ± 0.0075
27 | TGGKGNKNKIKE | 0.692 ± 0.031
28 | WWGRWGASVGRG | 0.686 ± 0.033
29 | INRDKLNRRKKL | 0.687 ± 0.038
30 | IKKRKQYCKRIK | 0.6801 ± 0.0048
31 | EEEQGPSENEKT | 0.9714 ± 0.0082
32 | FISEYPQCAALG | 0.738 ± 0.078
33 | QNKTKDQKQRRQ | 0.697 ± 0.028
34 | RHPPVPCIAQIR | 0.658 ± 0.024
35 | IASASGAQAGAR | 0.636 ± 0.017
36 | IRLSVPGLTCVS | 0.504 ± 0.0031
37 | PKKNQSKQRKKT | 0.708 ± 0.05
38 | LTHQENNIWVSR | 0.703 ± 0.057
39 | GKKRANQSRSLP | 0.76 ± 0.19
40 | SPRLLHPLPSFL | 0.7114 ± 0.0066
41 | MITQVIKRRKRK | 0.688 ± 0.041
42 | STPPAPPPLLPP | 0.736 ± 0.031
43 | LRCWVGGALCGG | 0.685 ± 0.033
44 | WGVGRDVVLWGA | 0.895 ± 0.14
45 | WGGGGGRGGMGG | 0.693 ± 0.055
46 | PGDVSFALARNG | 0.624 ± 0.074
47 | GVEGLGAFVTVQ | 0.702 ± 0.0089
48 | RYKCSQWHNGLT | 0.767 ± 0.048
49 | YSCLGFELWGKG | 0.632 ± 0.067
50 | VGGVWAGGGCSF | 0.651 ± 0.12

Row | Sequence | protein stability index
51 | TNMTRWRIRVRD | 0.676 ± 0.053
52 | PPPSLPPLPSPS | 0.725 ± 0.027
53 | KEKYEQIDIGKN | 0.719 ± 0.066
54 | LYYSEKRIKNVN | 0.643 ± 0.077
55 | SCVWVLPLGFLR | 0.575 ± 0.058
56 | IIYKPEKMRPKS | 0.7146 ± 0.0068
57 | GKSESATLMVTV | 0.697 ± 0.18
58 | FSRAPHFSGRLC | 0.502 ± 0.0087
59 | VPAGDPPGAWKA | 0.746 ± 0.025
60 | KNNERIDKRKKI | 0.726 ± 0.063
61 | ASAWLGLCGWVL | 0.674 ± 0.018
62 | PEIKKNRTVSIV | 0.664 ± 0.011
63 | GRSGWAWFTCRC | 0.67 ± 0.059
64 | RALLSPFYRFYV | 0.5956 ± 0.003
65 | VLNRFENRNSKA | 0.7098 ± 0.0035
66 | PAPPLPLAPPPL | 0.771 ± 0.025
67 | LVGSSYGRTDML | 0.715 ± 0.016
68 | PSSLPSTPPSPP | 0.745 ± 0.019
69 | PLVPPPADPLCV | 0.63 ± 0.0071
70 | FPHLAPTTHLLP | 0.673 ± 0.1
71 | ARPPLARITRPS | 0.686 ± 0.015
72 | IRVGVESGSRGR | 0.728 ± 0.22
73 | TAYRGCSDRNAG | 0.603 ± 0.042
74 | SFTFSFWRFSPR | 0.676 ± 0.019
75 | WWGCVGRVGVEG | 0.726 ± 0.1

Row | Sequence | protein stability index
76 | VFLRSPSRAPSL | 0.72 ± 0.078
77 | QASFPRPSGRAS | 0.7026 ± 0.0054
78 | PPLLPPPPPPAP | 0.666 ± 0.032
79 | AHLGRDVGRGTW | 0.729 ± 0.062
80 | SPQKCKSAPSSC | 0.6746 ± 0.0031
81 | GDVPHRIEGEFL | 0.788 ± 0.038
82 | PRRPLPTISCPS | 0.618 ± 0.005
83 | PPRRAPPPIRLP | 0.746 ± 0.074
84 | SPVTDRRKRRNN | 0.666 ± 0.012
85 | QEKKKVNKKENK | 0.737 ± 0.045
86 | LCTALLRSLTVG | 0.744 ± 0.13
87 | EGDKGGGEQKRQ | 0.688 ± 0.031
88 | SATDARPPMKSP | 0.735 ± 0.069
89 | GGGRGGAAEGAV | 0.781 ± 0.07
90 | CISPPRHAPPPP | 0.637 ± 0.092
91 | SPRQARSFLTSS | 0.756 ± 0.026
92 | KIIKIKKQGENK | 0.597 ± 0.016
93 | SLRLFIHTIFSR | 0.695 ± 0.061
94 | CPTVLWPRSPRN | 0.688 ± 0.027
95 | TPLPSLPRPSAP | 0.736 ± 0.016
96 | GGSSWSLGGGCG | 0.713 ± 0.023
97 | SHQTTKQKKKNL | 0.624 ± 0.013
98 | PTRPAMILPNRY | 0.698 ± 0.049
99 | FRPFLPPSRTFS | 0.676 ± 0.008
100 | LGGTGGFRGVRG | 0.691 ± 0.022

Row | Sequence | protein stability index
101 | TRIEPTQGVDSP | 0.664 ± 0.01
102 | HTRIGDGSRLLA | 0.72666 ± 0.00065
103 | SPPRSRPPPSLQ | 0.679 ± 0.015
104 | TWRRGSKPHVRS | 0.724 ± 0.044
105 | GARGGEGVSGGA | 0.701 ± 0.012
106 | FWCMLLAPFVNV | 0.657 ± 0.11
107 | IPPCRSFSYIAT | 0.68 ± 0.048
108 | MRIKSMLHHSKV | 0.66213 ± 0.00021
109 | LFPRSVPIAINL | 0.6259 ± 0.0045
110 | MCCSVGGLFFFF | 0.649 ± 0.04
111 | LRSLVRSRPAPP | 0.6744 ± 0.0042
112 | GAVWGRLTGSAH | 0.6469 ± 0.005
113 | KREKAQEGQGGD | 0.709 ± 0.025
114 | LSDFSLPTFLLL | 0.72 ± 0.065
115 | SEVISMSDDLGR | 0.633 ± 0.087
116 | FGGMSGVLFRMV | 0.663 ± 0.054
117 | LGMCGTCQREVG | 0.708 ± 0.027
118 | SFSPNRAVSFST | 0.727 ± 0.082
119 | TPPPPLSCPPPS | 0.487 ± 0.035
120 | WGWPHQRDGFLG | 0.66 ± 0.007
121 | CFLIFQRSWLFR | 0.576 ± 0.066
122 | SGKFGACVDRGI | 0.7236 ± 0.00012
123 | RLPSAPPRQPTH | 0.667 ± 0.061
124 | AEKTKAEKNITK | 0.752 ± 0.022
125 | VGGGGGAEGAGW | 0.739 ± 0.12

Row | Sequence | protein stability index
126 | LCGGLSLPFAHV | 0.691 ± 0.097
127 | LTRRSPSPRTLT | 0.644 ± 0.03
128 | LLIPPLPSLAPP | 0.759 ± 0.052
129 | WCVCGVWVGLWG | 0.71 ± 0.076
130 | RFGDWALGARVG | 0.72 ± 0.032
131 | LSPPPSPLPPLP | 0.679 ± 0.019
132 | RYENRGRMKRER | 0.676 ± 0.042
133 | SWVVSLGFAIGL | 0.693 ± 0.055
134 | RIKKKKKIKRNN | 0.7 ± 0.02
135 | YSVPDFIVVSHL | 0.797 ± 0.12
136 | SVYFSLITRPYY | 0.667 ± 0.012
137 | VFLNRGSHQQET | 0.691 ± 0.056
138 | ATHISCRRNRLY | 0.57 ± 0.039
139 | GSDMRADGRIER | 0.673 ± 0.039
140 | KHKAQQGSHGPQ | 0.616 ± 0.017
141 | APPPLCCPPLAP | 0.735 ± 0.1
142 | IALACPGGSYIV | 0.6739 ± 0.0024
143 | FKVILGEFPVAW | 0.674 ± 0.0086
144 | PSPSTAPPRDQG | 0.724 ± 0.016
145 | SLPSSPPPSPPL | 0.7172 ± 0.0043
146 | WLPPPPYSPFSL | 0.724 ± 0.059
147 | LPLDSPSRPLPP | 0.722 ± 0.011
148 | TYRYWGTLRYYD | 0.761 ± 0.07
149 | FAKLDRVGACRW | 0.764 ± 0.013
150 | RNNRQAREKKKQ | 0.701 ± 0.15

Row | Sequence | protein stability index
151 | VPAALAGADCSP | 0.763 ± 0.085
152 | HAKVFLMGCSYV | 0.692 ± 0.072
153 | GVGLIGVLTCGL | 0.636 ± 0.02
154 | TSFAPPSLPRHS | 0.735 ± 0.056
155 | PSQPYPSSQYIL | 0.73 ± 0.047
156 | PPPPPPPLAPPL | 0.685 ± 0.021
157 | TRVGNMVARRGS | 0.687 ± 0.048
158 | PSPPPSPPPRHF | 0.6924 ± 0.0046
159 | CSGRDLSLSMAD | 0.744 ± 0.13
160 | ARPPSLLLLASF | 0.6475 ± 0.0058
161 | MKRIRKTKIKAR | 0.624 ± 0.074
162 | KDANACSCDATS | 0.6774 ± 0.0026
163 | PVPRVPLYFPLV | 0.675 ± 0.017
164 | AGRFSPLPPHFI | 0.707 ± 0.035
165 | NKPPGVGHGGVT | 0.672 ± 0.025
166 | VTPVQFMFRLHF | 0.646 ± 0.054
167 | YLLLAFQRPTPG | 0.694 ± 0.019
168 | YLQLALFHSIPH | 0.738 ± 0.053
169 | PSSPPLPLPALP | 0.723 ± 0.04
170 | KIIKIHLFWGII | 0.478 ± 0.041
171 | VWAVGRATARER | 0.6969 ± 0.0025
172 | GGCCLWVGFLGG | 0.7016 ± 0.0021
173 | PPPPPPPPLPAP | 0.664 ± 0.018
174 | GGWAHGEGAGDC | 0.614 ± 0.028
175 | FSKDDFEVTPNS | 0.819 ± 0.079

Row | Sequence | protein stability index
176 | PASPPLRALSSL | 0.81 ± 0.075
177 | SVGSLLAFLHRR | 0.68336 ± 0.00055
178 | ELLSCGCCMVQS | 0.5622 ± 0.0025
179 | CARPVLSAGSWQ | 0.673 ± 0.065
180 | RLRSWLGIALFL | 0.642 ± 0.0067
181 | VSRRSGVGICHL | 0.609 ± 0.13
182 | CQSARCLPFLLY | 0.585 ± 0.026
183 | LPATCFSPPSSS | 0.687 ± 0.057
184 | GCAGRHRWVGEW | 0.6649 ± 0.0027
185 | ASARLRPDCPYL | 0.645 ± 0.074
186 | FGCLGVLGSGRC | 0.728 ± 0.037
187 | SSPPPSAHPLPS | 0.6933 ± 0.0055
188 | PLSPSAVGCPGF | 0.645 ± 0.16
189 | PPLPLPPRPTPP | 0.716 ± 0.071
190 | GGTGRRRVGRRG | 0.696 ± 0.018
191 | TPPPPLVPPLPP | 0.578 ± 0.017
192 | VCWVRGGGVLDG | 0.711 ± 0.053
193 | YHARPQALPSRP | 0.658 ± 0.055
194 | GGVGRGADASLA | 0.622 ± 0.017
195 | CFGGGVGWFPLG | 0.698 ± 0.0076
196 | CSSSLLDSPPAL | 0.703 ± 0.048
